{
  "source": "patent US20140073518A1",
  "about": "(Stanford University, published 2014)",
  "key": {"[1]": {"target": "T1, soluble Alexa-488 labeled human Met-Fc (human, UniProt P08581 25-932, limits assumed, Alexa-488 label)", "T1 construct": "not shown: Fc part", "T1 sequence (P08581 25-932 limits assumed)": "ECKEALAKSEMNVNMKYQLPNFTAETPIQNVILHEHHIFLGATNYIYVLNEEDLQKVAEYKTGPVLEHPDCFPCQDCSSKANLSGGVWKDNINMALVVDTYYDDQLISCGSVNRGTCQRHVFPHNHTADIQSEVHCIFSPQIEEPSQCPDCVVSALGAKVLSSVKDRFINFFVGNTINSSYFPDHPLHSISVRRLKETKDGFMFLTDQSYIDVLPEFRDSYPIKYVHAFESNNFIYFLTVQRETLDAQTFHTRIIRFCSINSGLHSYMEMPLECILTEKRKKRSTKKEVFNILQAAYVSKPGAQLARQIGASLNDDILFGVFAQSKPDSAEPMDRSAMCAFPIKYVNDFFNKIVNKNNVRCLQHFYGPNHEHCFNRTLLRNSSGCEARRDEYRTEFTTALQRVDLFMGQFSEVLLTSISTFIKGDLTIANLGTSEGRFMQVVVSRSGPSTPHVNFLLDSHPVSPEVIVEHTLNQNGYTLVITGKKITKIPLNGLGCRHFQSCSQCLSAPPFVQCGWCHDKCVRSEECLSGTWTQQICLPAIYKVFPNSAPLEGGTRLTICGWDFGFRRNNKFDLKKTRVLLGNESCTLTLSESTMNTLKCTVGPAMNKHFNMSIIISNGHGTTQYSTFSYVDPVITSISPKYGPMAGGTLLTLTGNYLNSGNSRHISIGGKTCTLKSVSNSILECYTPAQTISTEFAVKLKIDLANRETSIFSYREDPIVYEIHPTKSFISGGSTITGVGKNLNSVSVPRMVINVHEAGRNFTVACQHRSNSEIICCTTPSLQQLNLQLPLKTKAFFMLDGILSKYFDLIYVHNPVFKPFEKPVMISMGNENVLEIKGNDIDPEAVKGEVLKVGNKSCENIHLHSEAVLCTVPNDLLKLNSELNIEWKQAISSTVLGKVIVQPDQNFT", "experiment": "dual receptor direct binding assay, flow cytometry; 220 nM Met-Fc, 2 or 20 nM protein"}, "[2]": {"target": "T2, αvβ3 integrin on K562-αvβ3 cells (K562 leukemia cells transfected with αvβ3 integrin) (UniProt P06756 31-1048; P05106 27-788)", "T2 construct": "whole, on cells; also called cell-surface αvβ3 integrin", "T2 sequence (P06756 31-1048, chain 1 of 2)": "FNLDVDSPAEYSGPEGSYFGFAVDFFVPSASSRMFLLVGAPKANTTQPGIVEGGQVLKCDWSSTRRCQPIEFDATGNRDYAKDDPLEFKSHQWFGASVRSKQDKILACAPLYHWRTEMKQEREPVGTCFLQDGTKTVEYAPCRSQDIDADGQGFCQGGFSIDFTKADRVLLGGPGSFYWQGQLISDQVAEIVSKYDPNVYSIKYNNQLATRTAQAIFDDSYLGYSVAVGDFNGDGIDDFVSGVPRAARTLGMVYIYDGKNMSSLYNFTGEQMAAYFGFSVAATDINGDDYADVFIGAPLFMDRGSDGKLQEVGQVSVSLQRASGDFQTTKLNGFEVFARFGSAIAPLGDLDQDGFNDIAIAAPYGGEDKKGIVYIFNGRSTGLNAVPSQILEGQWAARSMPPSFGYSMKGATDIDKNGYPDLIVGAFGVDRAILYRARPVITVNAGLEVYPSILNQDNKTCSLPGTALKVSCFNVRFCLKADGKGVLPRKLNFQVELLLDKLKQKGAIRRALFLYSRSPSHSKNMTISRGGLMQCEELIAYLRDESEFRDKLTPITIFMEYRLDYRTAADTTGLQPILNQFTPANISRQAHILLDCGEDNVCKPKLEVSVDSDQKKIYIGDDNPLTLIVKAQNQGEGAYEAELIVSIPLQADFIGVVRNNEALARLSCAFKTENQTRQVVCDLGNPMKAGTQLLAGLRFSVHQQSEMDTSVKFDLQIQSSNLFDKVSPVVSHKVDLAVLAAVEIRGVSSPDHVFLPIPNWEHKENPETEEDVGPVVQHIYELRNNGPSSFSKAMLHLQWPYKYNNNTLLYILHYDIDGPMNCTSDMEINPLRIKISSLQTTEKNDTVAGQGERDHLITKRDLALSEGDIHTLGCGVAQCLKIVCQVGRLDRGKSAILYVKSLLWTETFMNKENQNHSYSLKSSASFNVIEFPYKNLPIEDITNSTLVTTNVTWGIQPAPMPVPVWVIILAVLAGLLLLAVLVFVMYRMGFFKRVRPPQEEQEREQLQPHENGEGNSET", "T2 sequence (P05106 27-788, chain 2 of 2)": "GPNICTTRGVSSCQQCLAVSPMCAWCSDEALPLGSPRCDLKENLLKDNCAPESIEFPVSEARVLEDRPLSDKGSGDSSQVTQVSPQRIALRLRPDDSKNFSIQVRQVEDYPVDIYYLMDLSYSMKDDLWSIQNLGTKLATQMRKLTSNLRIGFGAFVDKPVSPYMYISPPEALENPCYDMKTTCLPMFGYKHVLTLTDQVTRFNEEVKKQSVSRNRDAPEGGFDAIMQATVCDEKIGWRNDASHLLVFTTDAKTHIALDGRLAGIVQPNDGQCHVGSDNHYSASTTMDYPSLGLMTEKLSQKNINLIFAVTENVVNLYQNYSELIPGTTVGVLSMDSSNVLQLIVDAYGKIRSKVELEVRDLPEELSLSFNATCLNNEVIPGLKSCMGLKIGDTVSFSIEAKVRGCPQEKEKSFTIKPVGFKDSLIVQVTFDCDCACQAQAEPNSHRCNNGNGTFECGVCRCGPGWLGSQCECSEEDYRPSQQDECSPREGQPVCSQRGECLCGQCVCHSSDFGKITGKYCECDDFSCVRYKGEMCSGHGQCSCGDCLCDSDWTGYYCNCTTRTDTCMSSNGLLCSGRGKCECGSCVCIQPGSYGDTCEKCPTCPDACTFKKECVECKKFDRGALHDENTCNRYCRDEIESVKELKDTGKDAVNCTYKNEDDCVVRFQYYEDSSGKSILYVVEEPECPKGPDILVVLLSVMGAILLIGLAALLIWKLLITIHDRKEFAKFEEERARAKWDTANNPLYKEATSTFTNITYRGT", "experiment": "K562-αvβ3 cell binding assay"}, "[3]": {"target": "T2, αvβ3 integrin on K562-αvβ3 cells (K562 …)", "experiment": "binding to cells that express αvβ3 integrin"}, "[4]": {"target": "T2, αvβ3 integrin on K562-αvβ3 cells (K562 …)", "experiment": "flow cytometry on K562-αvβ3 cells, anti-FLAG detection"}, "[5]": {"target": "T3, Gas6 (growth arrest-specific 6), soluble, hexahistidine-tagged (UniProt Q14393 49-678, limits assumed)", "T3 construct": "also called Gas6 ligand; soluble Gas6", "T3 sequence (looked up)": "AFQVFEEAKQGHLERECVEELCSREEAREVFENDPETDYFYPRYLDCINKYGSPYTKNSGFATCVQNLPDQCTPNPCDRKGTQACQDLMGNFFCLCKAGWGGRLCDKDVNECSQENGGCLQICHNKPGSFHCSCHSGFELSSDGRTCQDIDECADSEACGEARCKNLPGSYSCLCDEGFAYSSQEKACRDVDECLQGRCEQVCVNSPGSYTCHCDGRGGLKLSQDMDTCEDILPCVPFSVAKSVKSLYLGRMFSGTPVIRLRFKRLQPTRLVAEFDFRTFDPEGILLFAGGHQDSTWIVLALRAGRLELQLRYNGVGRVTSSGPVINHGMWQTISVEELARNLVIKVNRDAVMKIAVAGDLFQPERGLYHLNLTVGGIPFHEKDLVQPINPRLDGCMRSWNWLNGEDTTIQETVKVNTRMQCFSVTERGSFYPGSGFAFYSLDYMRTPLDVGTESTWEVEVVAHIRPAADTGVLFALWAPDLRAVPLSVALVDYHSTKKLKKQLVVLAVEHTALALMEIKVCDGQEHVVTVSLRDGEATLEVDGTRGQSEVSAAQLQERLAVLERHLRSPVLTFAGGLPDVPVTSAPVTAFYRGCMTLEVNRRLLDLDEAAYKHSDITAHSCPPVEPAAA", "experiment": "yeast surface display, soluble Gas6"}, "[6]": {"target": "T2, αvβ3 integrin on K562-αvβ3 cells (K562 …)", "experiment": "binding titration of the soluble fusion protein on K562-αvβ3 cells, flow cytometry; the cells express αvβ3 integrin and also Met receptor"}, "[7]": {"target": "T3, Gas6 (growth arrest-specific 6), …", "experiment": "yeast surface display, flow cytometry"}, "soluble αvβ3 integrin": {"target": "T4, soluble αvβ3 integrin (UniProt P06756 31-992; P05106 27-718)", "T4 construct": "also called alpha v beta 3 integrin", "T4 sequence (P06756 31-992, chain 1 of 2)": "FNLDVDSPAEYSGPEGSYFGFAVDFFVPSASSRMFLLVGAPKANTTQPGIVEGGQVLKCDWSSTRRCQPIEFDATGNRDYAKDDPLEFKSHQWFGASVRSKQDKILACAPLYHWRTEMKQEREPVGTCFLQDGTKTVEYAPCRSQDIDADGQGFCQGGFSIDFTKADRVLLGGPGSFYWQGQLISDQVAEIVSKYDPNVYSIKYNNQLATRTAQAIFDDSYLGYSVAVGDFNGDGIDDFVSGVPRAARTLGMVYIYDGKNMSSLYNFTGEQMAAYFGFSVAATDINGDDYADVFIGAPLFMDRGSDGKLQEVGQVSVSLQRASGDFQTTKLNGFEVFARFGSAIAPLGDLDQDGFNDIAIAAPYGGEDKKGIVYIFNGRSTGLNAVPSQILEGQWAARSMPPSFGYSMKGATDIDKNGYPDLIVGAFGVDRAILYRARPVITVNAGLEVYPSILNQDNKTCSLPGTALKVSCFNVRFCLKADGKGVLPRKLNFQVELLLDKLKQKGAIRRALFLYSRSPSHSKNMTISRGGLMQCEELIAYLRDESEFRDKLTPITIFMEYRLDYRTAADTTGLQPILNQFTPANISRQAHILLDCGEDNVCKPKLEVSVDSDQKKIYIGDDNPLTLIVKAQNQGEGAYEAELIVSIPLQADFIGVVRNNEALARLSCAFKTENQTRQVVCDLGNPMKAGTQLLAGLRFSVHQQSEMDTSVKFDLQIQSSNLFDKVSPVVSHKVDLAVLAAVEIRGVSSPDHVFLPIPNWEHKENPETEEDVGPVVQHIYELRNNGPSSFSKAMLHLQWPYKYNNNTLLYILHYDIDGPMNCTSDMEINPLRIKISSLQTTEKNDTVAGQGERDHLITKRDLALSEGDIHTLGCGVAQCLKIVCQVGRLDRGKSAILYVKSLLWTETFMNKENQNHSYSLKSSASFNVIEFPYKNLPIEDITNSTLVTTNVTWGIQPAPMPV", "T4 sequence (P05106 27-718, chain 2 of 2)": "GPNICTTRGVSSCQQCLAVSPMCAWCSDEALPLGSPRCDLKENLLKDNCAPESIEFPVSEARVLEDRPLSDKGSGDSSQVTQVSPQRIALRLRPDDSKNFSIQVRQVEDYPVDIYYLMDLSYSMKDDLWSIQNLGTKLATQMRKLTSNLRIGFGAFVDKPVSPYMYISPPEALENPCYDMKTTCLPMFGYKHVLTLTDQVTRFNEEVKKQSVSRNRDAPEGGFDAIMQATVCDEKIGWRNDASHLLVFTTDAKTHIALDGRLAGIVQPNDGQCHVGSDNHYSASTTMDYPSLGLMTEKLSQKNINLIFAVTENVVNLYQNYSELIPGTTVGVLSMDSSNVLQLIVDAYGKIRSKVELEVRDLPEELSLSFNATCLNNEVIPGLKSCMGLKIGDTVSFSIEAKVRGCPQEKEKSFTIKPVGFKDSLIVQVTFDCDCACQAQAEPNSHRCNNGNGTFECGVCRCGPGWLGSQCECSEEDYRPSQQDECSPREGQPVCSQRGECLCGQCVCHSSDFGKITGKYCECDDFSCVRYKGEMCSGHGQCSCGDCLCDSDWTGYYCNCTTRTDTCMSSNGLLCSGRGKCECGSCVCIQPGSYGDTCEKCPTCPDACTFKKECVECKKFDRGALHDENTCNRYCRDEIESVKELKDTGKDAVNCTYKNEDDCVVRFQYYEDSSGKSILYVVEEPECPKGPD", "experiment": "yeast surface display, flow cytometry"}},
  "data": [
    {"binder": "EETI2.5F-M2.2(D127A) fusion protein (designed binder) DYKDDDDKPRGCPRPRGDNPPLTCSQDSDCLAGCVCGPNGFCGYAEGQRKRRNTIHEFKKSAKTTLIKIDPALKIKTEKVNTADQCANRCTRNKGLPFTCKAFVFDKARKRCLWFPFNSMSSGVKKEFGHEFDLYENKDYIRACIIGNGRSYRGTVSITKSGIKCQPWSSMIPHEHSFLPSSYRGEDLRENYCRNPRGEEGGPWCFTSDPEVRYEVCDIPQCSEVETRHHHHHH", "values": [
      {"measurement": "binding result", "setting": "[1]", "value": "binds"},
      {"measurement": "Kd", "setting": "[2]", "value": 4.6, "unit": "nM"}
    ]},
    {"binder": "EETI2.5F-M2.2 fusion protein (designed binder) DYKDDDDKPRGCPRPRGDNPPLTCSQDSDCLAGCVCGPNGFCGYAEGQRKRRNTIHEFKKSAKTTLIKIDPALKIKTEKVNTADQCANRCTRNKGLPFTCKAFVFDKARKRCLWFPFNSMSSGVKKEFGHEFDLYENKDYIRDCIIGNGRSYRGTVSITKSGIKCQPWSSMIPHEHSFLPSSYRGEDLRENYCRNPRGEEGGPWCFTSDPEVRYEVCDIPQCSEVETRHHHHHH", "values": [
      {"measurement": "binding result", "setting": "[1]", "value": "binds"}
    ]},
    {"binder": "EETI 2.5D-Axl fusion protein (soluble, produced in P. pastoris) (designed binder, Treated with endoH; monomeric; also called 2.5D - Axl Ig1; recombinantly produced EETI 2.5D-Axl) GCPQGRGDWAPTSCSQDSDCLAGCVCGPNGFCGSRGTQAEESPFVGNPGNITGARGLTGTLRCQLQVQGEPPEVHWLRDGQILELADSTQTQVPLGEDEQDDWIVVSQLRITSLQLSDTGQYQCLVFLGHQTFVSQPGYVGLEGLP", "values": [
      {"measurement": "Kd", "setting": "[3]", "value": "~2", "unit": "nM"},
      {"measurement": "Kd", "setting": "[4]", "value": 1.72, "unit": "nM"}
    ]},
    {"binder": "GCLGGVALAHCKQDSDCLAGCVCHILPELCGS (designed binder, also called EETI-II mutants alone)", "note": "[EETI-II mutant of EA 7.06 alone (expressed without Axl)]", "values": [
      {"measurement": "binding result", "setting": "[5]", "value": "no binding"}
    ]},
    {"binder": "AgRp7A-M2.2 fusion protein (designed binder) DYKDDDDKPRGCVRLHESCLGQQVPCCDPAATCYCSGRGDNDLVCYCRYAEGQRKRRNTIHEFKKSAKTTLIKIDPALKIKTEKVNTADQCANRCTRNKGLPFTCKAFVFDKARKRCLWFPFNSMSSGVKKEFGHEFDLYENKDYIRDCIIGNGRSYRGTVSITKSGIKCQPWSSMIPHEHSFLPSSYRGEDLRENYCRNPRGEEGGPWCFTSDPEVRYEVCDIPQCSEVETRHHHHHH", "values": [
      {"measurement": "binding result", "setting": "[1]", "value": "binds"}
    ]},
    {"binder": "AgRP7A-Aras4 fusion protein (soluble, FLAG and His tagged) (designed binder, Produced in Pichia pastoris) DYKDDDDKPRGCVRLHESCLGQQVPCCDPAATCYCSGRGDNDLVCYCRYAEGQGKRRNTIHEFKKSAKTTLIKIDPALRIKTEKANTADQCANRCTRSKGLPFTCKAFVFDKARKRCLWFPFNSMSSGVKKEFGHEFDLYENKAYIRDCIIGRGRNYRGTVSITKSGIKCQPWSAMIPHEHSFLPSSYRGEDLRENYCRNPRGEEGGPWCYTSDPEVRYEVCDIPQCSEVETRHHHHHH", "values": [
      {"measurement": "EC50 (read off the curve)", "setting": "[6]", "value": "~1", "unit": "nM"}
    ]},
    {"binder": "AgRp7A-M2.2(D127A) fusion protein (designed binder) DYKDDDDKPRGCVRLHESCLGQQVPCCDPAATCYCSGRGDNDLVCYCRYAEGQRKRRNTIHEFKKSAKTTLIKIDPALKIKTEKVNTADQCANRCTRNKGLPFTCKAFVFDKARKRCLWFPFNSMSSGVKKEFGHEFDLYENKDYIRACIIGNGRSYRGTVSITKSGIKCQPWSSMIPHEHSFLPSSYRGEDLRENYCRNPRGEEGGPWCFTSDPEVRYEVCDIPQCSEVETRHHHHHH", "values": [
      {"measurement": "binding result", "setting": "[1]", "value": "binds"},
      {"measurement": "Kd", "setting": "[2]", "value": 2.1, "unit": "nM"}
    ]},
    {"binder": "GCALMTPSAVDCKQDSDCLAGCVCLPGMVRCGS (designed binder, also called EETI-II mutants alone)", "note": "[EETI-II mutant of EA 7.01 alone (expressed without Axl)]", "values": [
      {"measurement": "binding result", "setting": "[5]", "value": "no binding"}
    ]},
    {"binder": "GCPQGRGDWAPTSCKQDSDCRAGCVCGPNGFCG (designed binder, also called EETI 2.5D)", "note": "[EETI-II mutant 2.5D (yeast-displayed)]", "values": [
      {"measurement": "binding result", "setting": "[7]", "value": "no binding (tested: 0.2, 2 or 20 nM Gas6)"}
    ]},
    {"binder": "GCSWSTLARCKQDSDCLAGCVCMLEPGMRSCGS (designed binder, also called EETI-II mutants alone)", "note": "[EETI-II mutant of EA 8.04 alone (expressed without Axl)]", "values": [
      {"measurement": "binding result", "setting": "[5]", "value": "no binding"}
    ]},
    {"binder": "wild-type Axl Ig1 (yeast-displayed) (receptor, T0017 footnote says amino acids 19-132; also called Wt Axl; wt Axl Ig1) APRGTQAEESPFVGNPGNITGARGLTGTLRCQLQVQGEPPEVHWLRDGQILELADSTQTQVPLGEDEQDDWIVVSQLRITSLQLSDTGQYQCLVFLGHQTFVSQPGYVGLEGLP", "values": [
      {"measurement": "binding result", "setting": "soluble αvβ3 integrin", "value": "no binding (tested: 20, 50 or 100 nM αvβ3 integrin)"}
    ]}
  ]
}
